ChEMBL document CHEMBL1150442, “Synthesis and creatine kinase inhibitory activity of non-hydrolyzable analogs of phosphocreatine” (Bioorg Med Chem Lett, 1997)

Test system: CN(CC(=O)O)C(=N)NP(=O)(O)O
Test: Compound was tested for inhibition against Creatine kinase(CK)
Conditions: Oryctolagus cuniculus

Sequence of Creatine kinase M-type (Homo sapiens), P06732 (P06732 whole entry): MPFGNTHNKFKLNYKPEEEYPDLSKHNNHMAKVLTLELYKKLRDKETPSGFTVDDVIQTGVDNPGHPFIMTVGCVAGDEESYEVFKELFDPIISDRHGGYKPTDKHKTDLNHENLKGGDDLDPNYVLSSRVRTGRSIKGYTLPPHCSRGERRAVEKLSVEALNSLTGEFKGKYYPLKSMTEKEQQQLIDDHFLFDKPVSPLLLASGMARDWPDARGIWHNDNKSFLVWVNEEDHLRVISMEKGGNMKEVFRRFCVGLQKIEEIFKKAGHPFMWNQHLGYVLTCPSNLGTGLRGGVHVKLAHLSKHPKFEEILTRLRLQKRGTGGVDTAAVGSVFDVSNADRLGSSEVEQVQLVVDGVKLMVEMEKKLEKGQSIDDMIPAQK

Substance: Creatine kinase M-type (Homo sapiens), P06732
- Km: 2500 µM
